In patent US20170022281A1 (AbbVie / Abbott, published 2017):

Columns and labels:
[1] = biological target: T1, cyno PRLR ECD-his6 protein (cyno); experiment: ELISA on ECD
T1 chain: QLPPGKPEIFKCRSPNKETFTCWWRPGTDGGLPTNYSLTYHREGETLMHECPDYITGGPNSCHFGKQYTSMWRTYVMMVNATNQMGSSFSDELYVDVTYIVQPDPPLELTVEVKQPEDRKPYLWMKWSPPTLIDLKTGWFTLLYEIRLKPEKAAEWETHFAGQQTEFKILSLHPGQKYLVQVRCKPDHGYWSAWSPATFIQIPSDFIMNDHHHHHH
Protocol: (§1) Plates were blocked for 1 hour with Superblock (Pierce) and washed (3×) with wash buffer (lx PBS (pH 7.4), 0.05% Tween 20). ECD proteins were bound to the appropriate antibody (1 hour) in binding buffer (wash buffer plus 10% Superblock), washed (3×, wash buffer), and then incubated with serial dilutions of antibodies (1 hour) in binding buffer. After washing (3×, wash buffer), secondary antibodies conjugated to HRP were bound (1 hour) in binding buffer, washed (3×, wash buffer), and incubated with TMB substrate (Pierce) to develop signal for 3-5 minutes, stopped with 2N H₂SO₄ and scanned at […]. Curves were fit with GraphPad 5 (Prizm) and EC50's were determined with curve fitting function of GraphPad 5.

[2] = biological target: T2, human PRLR ECD-Fc fusion protein (human, UniProt P16471 25-233); experiment: ELISA on ECD
T2 construct: not shown: Fc region (captured by goat anti-human Fc)
T2 sequence: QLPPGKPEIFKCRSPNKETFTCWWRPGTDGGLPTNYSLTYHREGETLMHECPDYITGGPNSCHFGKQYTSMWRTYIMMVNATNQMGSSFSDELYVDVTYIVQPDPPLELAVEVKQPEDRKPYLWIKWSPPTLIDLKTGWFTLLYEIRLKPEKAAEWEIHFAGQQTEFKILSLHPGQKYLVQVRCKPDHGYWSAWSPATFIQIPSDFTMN
Protocol: as §1

[3] = biological target: T3, mouse PRLR ECD-Fc fusion protein (mouse, UniProt Q08501 20-229); experiment: ELISA on ECD
T3 construct: extracellular domain; not shown: Fc region (captured by goat anti-human Fc)
T3 sequence (looked up): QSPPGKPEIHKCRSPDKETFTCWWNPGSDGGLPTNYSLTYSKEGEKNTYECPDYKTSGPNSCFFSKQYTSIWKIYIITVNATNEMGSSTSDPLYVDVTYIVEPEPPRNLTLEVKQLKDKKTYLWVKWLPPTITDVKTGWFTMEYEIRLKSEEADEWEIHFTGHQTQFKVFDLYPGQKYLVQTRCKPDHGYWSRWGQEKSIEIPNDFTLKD
Protocol: as §1

human PRLR on cells = biological target: T4, human PRLR on cells (human, UniProt P16471 25-622); experiment: cell-based or functional assay
T4 sequence: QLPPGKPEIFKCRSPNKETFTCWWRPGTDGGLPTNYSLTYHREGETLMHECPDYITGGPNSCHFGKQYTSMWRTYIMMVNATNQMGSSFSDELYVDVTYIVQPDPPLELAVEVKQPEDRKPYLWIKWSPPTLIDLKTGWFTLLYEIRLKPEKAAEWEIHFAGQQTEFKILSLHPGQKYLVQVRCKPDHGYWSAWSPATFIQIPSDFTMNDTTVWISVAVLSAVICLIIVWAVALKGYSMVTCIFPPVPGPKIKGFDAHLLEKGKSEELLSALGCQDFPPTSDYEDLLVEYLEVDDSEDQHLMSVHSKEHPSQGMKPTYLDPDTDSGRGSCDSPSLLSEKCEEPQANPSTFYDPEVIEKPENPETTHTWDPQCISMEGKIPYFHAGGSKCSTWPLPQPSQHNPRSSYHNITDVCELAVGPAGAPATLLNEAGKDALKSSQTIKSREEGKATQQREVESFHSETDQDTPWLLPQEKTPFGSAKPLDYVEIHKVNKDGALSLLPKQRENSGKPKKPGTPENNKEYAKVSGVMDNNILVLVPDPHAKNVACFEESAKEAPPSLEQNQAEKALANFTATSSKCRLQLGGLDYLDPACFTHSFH

[4] = biological target: cyno PRLR on Baf3-cyPRLR cells (cyno); experiment: cell-based or functional assay
[5] = biological target: T5, mouse PRLR on Baf3-mPRLR cells (mouse, UniProt Q08501 20-608); experiment: cell-based or functional assay
T5 sequence (looked up): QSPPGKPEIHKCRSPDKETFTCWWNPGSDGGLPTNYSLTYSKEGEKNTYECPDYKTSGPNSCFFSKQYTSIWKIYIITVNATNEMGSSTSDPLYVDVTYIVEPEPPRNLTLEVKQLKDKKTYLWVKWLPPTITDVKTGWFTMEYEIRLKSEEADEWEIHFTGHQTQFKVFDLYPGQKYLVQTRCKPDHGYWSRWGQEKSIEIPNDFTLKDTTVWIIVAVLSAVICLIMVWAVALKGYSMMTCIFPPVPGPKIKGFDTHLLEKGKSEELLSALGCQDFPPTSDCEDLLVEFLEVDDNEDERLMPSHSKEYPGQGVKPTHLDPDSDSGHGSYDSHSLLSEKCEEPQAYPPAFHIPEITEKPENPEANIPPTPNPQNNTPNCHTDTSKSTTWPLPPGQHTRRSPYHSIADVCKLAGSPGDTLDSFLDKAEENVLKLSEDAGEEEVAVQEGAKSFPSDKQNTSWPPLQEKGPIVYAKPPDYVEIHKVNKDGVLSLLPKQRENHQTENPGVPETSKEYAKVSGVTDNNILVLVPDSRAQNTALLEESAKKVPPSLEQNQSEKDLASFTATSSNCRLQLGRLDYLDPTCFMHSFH

[6] = biological target: T6, cyno PRLR (Biacore antigen) (cyno, UniProt A0A2K5WXK1 25-234); experiment: SPR Biacore
T6 construct: also called cyPRLR
T6 sequence: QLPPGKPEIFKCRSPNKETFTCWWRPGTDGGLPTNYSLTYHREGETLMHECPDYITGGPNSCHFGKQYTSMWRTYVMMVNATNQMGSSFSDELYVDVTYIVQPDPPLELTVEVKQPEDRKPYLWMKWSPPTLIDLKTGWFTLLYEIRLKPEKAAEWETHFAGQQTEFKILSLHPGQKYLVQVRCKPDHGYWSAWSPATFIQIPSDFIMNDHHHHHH
How it was run: (§2)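 Association rate, dissociation rate and dissociation constant were measured by surface plasmon resonance on a Biacore instrument. PRLR antigen was tested at 600 nM, 66.67 nM and 7.41 nM, a 3-point, 9-fold dilution series. Constants came from a 1:1 binding model fit (local Rmax, mass-transport term included) in Biacore T200 Evaluation Software.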

[7] = biological target: T7, murine PRLR (Biacore antigen) (murine, UniProt Q08501 20-229, limits assumed); experiment: SPR Biacore
T7 construct: also called muPRLR
T7 sequence (looked up): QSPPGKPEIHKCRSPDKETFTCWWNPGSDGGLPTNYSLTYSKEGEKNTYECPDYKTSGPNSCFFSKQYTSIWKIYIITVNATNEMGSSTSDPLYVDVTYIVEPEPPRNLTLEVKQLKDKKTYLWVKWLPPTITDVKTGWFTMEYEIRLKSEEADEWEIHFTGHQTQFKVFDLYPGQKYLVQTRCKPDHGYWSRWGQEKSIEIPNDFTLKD
How it was run: as §2

[8] = biological target: T8, rat PRLR ECD-Fc fusion protein (rat, UniProt P05710 20-229); experiment: ELISA on ECD
T8 construct: extracellular domain; not shown: Fc region (captured by goat anti-human Fc)
T8 sequence (looked up): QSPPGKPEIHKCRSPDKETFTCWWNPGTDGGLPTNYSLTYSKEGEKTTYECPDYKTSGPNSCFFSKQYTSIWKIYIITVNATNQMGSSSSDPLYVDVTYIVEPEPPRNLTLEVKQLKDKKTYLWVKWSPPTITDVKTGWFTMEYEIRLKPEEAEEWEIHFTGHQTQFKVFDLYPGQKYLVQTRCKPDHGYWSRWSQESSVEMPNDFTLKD
Protocol: as §1

B1: Ab46 (antibody, human IgG1, kappa, V domains shown)
VH: EVQLVQSGAEVKKPGASVKVSCKASGYTFTDYNIHWVRQAPGQGLEWMGYIYPNNDGTGYNQKFKSRVTMTTDTSTSTAYMELRSLRSDDTAVYYCARGDGNYVGDMDYWGQGTTVTVSS
VL: DIQMTQSPSSLSASVGDRVTITCRASENIYSYLAWYQQKPGKAPKLLVYNAKTLAEGVPSRFSGSGSGTDFTLTISSLQPEDFATYYCQHHYATPFTFGQGTKLEIKR
notes: humanized from Ab8; G1; also called Ab3 HC.1 and Ab3 LC.1b
EC50 [1]: 0.0814 nM | EC50 [2]: 0.0626 nM | EC50 [3]: 0.568 nM | Baf3-hPRLR proliferation IC50 (human PRLR on cells): 0.3 µg/mL | Baf3-cyPRLR proliferation IC50 [4]: 1.72 µg/mL | Baf3-mPRLR proliferation IC50 [5]: > 30 µg/mL

B2: Ab45 (antibody, human IgG1, kappa, V domains shown)
VH: EVQLVQSGAEVKKPGASVKVSCKASGYTFTDYNIHWVRQAPGQGLEWMGYIYPNNDGTGYNQKFKSRVTMTTDTSTSTAYMELRSLRSDDTAVYYCARGDGNYVGDMDYWGQGTTVTVSS
VL: DIQMTQSPSSLSASVGDRVTITCRASENIYSYLAWYQQKPGKPPKLLVYNAKTLAEGVPSRFSGSGSGTDFTLTISSLQPEDFATYYCQHHYATPFTFGQGTKLEIKR
notes: humanized from Ab8; G1; also called Ab3 HC.1 and Ab3 LC.1a
EC50 [1]: 0.201 nM | EC50 [2]: 0.0684 nM | EC50 [3]: 0.978 nM | Baf3-hPRLR proliferation IC50 (human PRLR on cells): 0.31 µg/mL | Baf3-cyPRLR proliferation IC50 [4]: 2.24 µg/mL | Baf3-mPRLR proliferation IC50 [5]: > 30 µg/mL

B3: Ab28 (antibody, human IgG1, kappa)
heavy: not shown
light: DVVMTQTPLSLSVTPGQPASISCRSSQRLVHSNGNTYLHWYLQKPGQSPQLLIYKVSNRFSGVPDRFSGSGSGTDFTLKISRVEAEDVGVYYCSQSTHVPWTFGGGTKVEIKRTVAAPSVFIFPPSDEQLKSGTASVVCLLNNFYPREAKVQWKVDNALQSGNSQESVTEQDSKDSTYSLSSTLTLSKADYEKHKVYACEVTHQGLSSPVTKSFNRGEC
notes: humanized from Ab5; G1; also called Ab2 HC.1 and Ab2 LC.1b
Kd [6]: 1.97 nM | koff [6]: 0.000619 s⁻¹ | kon [6]: 315000 M⁻¹ s⁻¹ | Kd [7]: 52 nM | koff [7]: 0.00606 s⁻¹ | kon [7]: 117000 M⁻¹ s⁻¹ | EC50 [1]: 0.0965 nM | EC50 [8]: 0.416 nM | EC50 [3]: 0.292 nM | Baf3-hPRLR proliferation IC50 (human PRLR on cells): 0.22 µg/mL | Baf3-cyPRLR proliferation IC50 [4]: 0.31 µg/mL
